Experiments:
ENaC = assay: Amiloride-sensitive short circuit current in FRT epithelia with ENaC: Nedd4-2 dose response with SGK, SGKY298A or GFP; assay type: cell-based; conditions: FRT epithelia with α-, β-, γENaC, increasing amounts of Nedd4-2 (0–0.2 µg), no SGK; amiloride 10 µM; n = 18
Method: To test the hypothesis that the interaction of the Nedd4-2 WW-domains with the SGK PY motif is required for SGK to influence Nedd4-2 function, we co-expressed α-, β- and γENaC in FRT epithelia with either wild type SGK or SGKY298A along with increasing amounts of Nedd4-2, and measured the amiloride-sensitive short circuit current.
Figure 4 The SGK PY motif is necessary for SGK to inhibit Nedd4-2. Amiloride-sensitive short-circuit sodium current (relative to 0 µg of Nedd4-2) in FRT cells 48 hr after transfection with α-, β- and γENaC and SGK (closed circles) or SGKY298A (open circles) or GFP (closed squares), in the presence of increasing amounts of Nedd4-2, n = 18. Nedd4-2 is expressed as a fraction of the amount of ENaC cDNA. Expression of SGK and SGKY298A was reported in Figure 1B of Snyder et al..
Fischer rat thyroid (FRT) cells were grown on permeable filter supports (Snapwell™, Corning USA or Millicell PCF, both with […] pore size, 12 mm diameter) in F-12 Coon's media with 5% fetal calf serum (Sigma), 100 U/ml penicillin, and 100 µg/ml streptomycin at 37°C. One day after seeding, cells were cotransfected with α-, β- and γENaC (0.07 µg each), 0.6 µg wildtype or mutant SGK, and 0–0.2 µg Nedd4-2 (Fig. 4 only). Total DNA was held constant (1 µg/millicell) using cloning vector DNA. The plasmids were mixed with Lipofectamine 2000 (Invitrogen) or TFX 50 (Promega, Madison, WI; 7.9 µg/millicell) in serum free F12 Coon's media for 15 minutes and transferred to the apical surface of the monolayer. One-six hours later, the apical media was replaced with F-12 Coon's media containing 5% fetal calf serum and amiloride (10 µM). Short-circuit current was measured […] after transfection in modified Ussing chambers connected to a voltage clamp (South Campus Electronics, Dunedin, New Zealand or Warner Instruments). The apical and basolateral surfaces were bathed in (in mM) 135 NaCl, 1.2 CaCl2, 1.2 MgCl2, 2.4 K2HPO4, 0.6 KH2PO4, 10 HEPES, pH 7.4, at 37°C and bubbled with O2. Amiloride-sensitive short-circuit current (Isc-amiloride) was determined as the difference in current with and without amiloride (10 µM) in the apical bathing solution. Data are presented as relative Isc-amiloride (Isc-amiloride relative) that was obtained by normalizing the Isc-amiloride to that of control cells transfected with αβγENaC in the same experiment. Transepithelial resistance (Rt) was monitored by applying repetitive voltage potential pulses (5 mV for 1 sec at 120 sec intervals) across the epithelium.

SGK = assay: Co-immunoprecipitation of Nedd4-2 with SGK in COS7 cells; assay type: binding, human; conditions: Nedd4-2-FLAG and SGK-HA, IP anti-HA, blot anti-FLAG, data not shown
Method: Co-immunoprecipitation was used to characterize an in vitro interaction between Nedd4-2 and SGK. Nedd4-2-FLAG and SGK-HA were co-expressed in COS7 cells, SGK was immunoprecipitated with anti-HA, and the presence of Nedd4-2 in the immunoprecipitates was assessed by western blotting with anti-FLAG. […] We reasoned that SGK would be rapidly turned over in the cells, and this would be enhanced by overexpression of active Nedd4-2, since Nedd4-2 is known to induce degradation of SGK [23]. Therefore we co-expressed a stable form of SGK (ΔN60SGK-HA, lacking the first 60 amino acids of SGK), together with a ligase-dead form of Nedd4-2 (Nedd4-2C821A–FLAG).
(A) ΔN60SGK-HA and Nedd4-2C821A–FLAG were transiently co-expressed, or expressed alone as indicated, in COS7 cells. Complexes were immunoprecipitated with anti-HA antibody. Immunoprecipitates were analyzed by 10% SDS-PAGE and sequential western blotting (IB) with anti-FLAG antibody (Nedd4-2) and anti-HA antibody (ΔN60SGK). Expression of the proteins (5% input) is shown in the bottom panel, n = 3. Either ΔN60SGK-HA (B, E) or SGK-FLAG (C, D) was transiently expressed in COS7 cells. […] Bound SGK was analyzed by immunostaining with anti-FLAG/HA antibody. […]
COS7 cells were co-transfected with ΔN60SGK-HA and Nedd4-2C821A-FLAG. […] The beads were washed four times in T-TBS and analysed by SDS-PAGE and Western blotting with anti-FLAG (Sigma).

B1: Nedd4-2: ubiquitin ligase, Nedd4-family member, human (protein)
chain: MERPYTFKDFLLRPRSHKSRVKGFLRLKMAYMPKNGGQDEENSDQRDDMEHGWEVVDSNDSASQHQEELPPPPLPPGWEEKVDNLGRTYYVNHNNRTTQWHRPSLMDVSSESDNNIRQINQEAAHRRFRSRRHISEDLEPEPSEGGDVPEPWETISEEVNIAGDSLGLALPPPPASPGSRTSPQELSEELSRRLQITPDSNGEQFSSLIQREPSSRLRSCSVTDAVAEQGHLPPPSAPAGRARSSTVTGGEEPTPSVAYVHTTPGLPSGWEERKDAKGRTYYVNHNNRTTTWTRPIMQLAEDGASGSATNSNNHLIEPQIRRPRSLSSPTVTLSAPLEGAKDSPVRRAVKDTLSNPQSPQPSPYNSPKPQHKVTQSFLPPGWEMRIAPNGRPFFIDHNTKTTTWEDPRLKFPVHMRSKTSLNPNDLGPLPPGWEERIHLDGRTFYIDHNSKITQWEDPRLQNPAITGPAVPYSREFKQKYDYFRKKLKKPADIPNRFEMKLHRNNIFEESYRRIMSVKRPDVLKARLWIEFESEKGLDYGGVAREWFFLLSKEMFNPYYGLFEYSATDNYTLQINPNSGLCNEDHLSYFTFIGRVAGLAVFHGKLLDGFFIRPFYKMMLGKQITLNDMESVDSEYYNSLKWILENDPTELDLMFCIDEENFGQTYQVDLKPNGSEIMVTNENKREYIDLVIQWRFVNRVQKQMNAFLEGFTELLPIDLIKIFDENELELLMCGLGDVDVNDWRQHSIYKNGYCPNHPVIQWFWKAVLLMDAEKRIRLLQFVTGTSRVPMNGFAELYGSNGPQLFTIEQWGSPEKLPRAHTCFNRLDLPPYETFEDLREKLLMAVENAQGFEGVD
modifications: left off: FLAG, C-terminal, kept
notes: ubiquitin ligase, Nedd4-family member, human
With B1 the “inhibition of ENaC by Nedd4-2 in the absence of SGK (in words)” value (ENaC) was “inhibited ENaC in a dose-dependent manner” and the “co-immunoprecipitation with SGK (in words)” value (SGK) was “co-precipitated with SGK but the amount of Nedd4-2 co-precipitated was small”.
